Test results as given in the FLAb antibody collection (doi:10.1101/2023.12.08.570889).
Residue numbers refer to the chain shown, from its start.

B1: unnamed (protein)
chain 1: QVQLVQSGAEVKKPGASVKVSCKASGYSFTSSWIHWVKQAPGQGLEWMGEINPGNVRTNYNENFRNKVTMTVDTSISTAYMELSRLRSDDTAVYYCTRVRFGEPYFDYWGQGTLVTVSS
chain 2: QIVLTQSPGTLSLSPGERATMTCTASSSVSSSYFHWYQQKPGQAPRLWIYRTSRLASGVPDRFSGSGSGTDFTLTISRLEPEDAATYYCHQFHRSPLTFGAGTKLEIK
B2: unnamed (protein)
chain 1: B1 chain 1 with R100S, Y105W
chain 2: B1 chain 2
B3: unnamed (protein)
chain 1: B1 chain 1 with Y105W
chain 2: B1 chain 2
B4: unnamed (protein)
chain 1: B1 chain 1 with R100Q
chain 2: B1 chain 2
B5: unnamed (protein)
chain 1: B1 chain 1 with R100F, F101Y
chain 2: B1 chain 2
B6: unnamed (protein)
chain 1: B1 chain 1 with R100S
chain 2: B1 chain 2
B7: unnamed (protein)
chain 1: B1 chain 1 with R100T, F101Y
chain 2: B1 chain 2
B8: unnamed (protein)
chain 1: B1 chain 1 with F101Y, E103Y, Y105W
chain 2: B1 chain 2
B9: unnamed (protein)
chain 1: B1 chain 1 with R100V
chain 2: B1 chain 2
B10: unnamed (protein)
chain 1: B1 chain 1 with V99Q, R100T, F101Y
chain 2: B1 chain 2
B11: unnamed (protein)
chain 1: B1 chain 1 with V99S, F101Y
chain 2: B1 chain 2
B12: unnamed (protein)
chain 1: B1 chain 1 with R100S, F101Y
chain 2: B1 chain 2
B13: unnamed (protein)
chain 1: B1 chain 1 with R100Q, F101Y, E103Y
chain 2: B1 chain 2
B14: unnamed (protein)
chain 1: B1 chain 1 with V99I, F101Y
chain 2: B1 chain 2
B15: unnamed (protein)
chain 1: B1 chain 1 with E103Y, Y105W
chain 2: B1 chain 2
B16: unnamed (protein)
chain 1: B1 chain 1 with R100M, F101Y
chain 2: B1 chain 2
B17: unnamed (protein)
chain 1: B1 chain 1 with R98T, F101Y
chain 2: B1 chain 2
B18: unnamed (protein)
chain 1: B1 chain 1 with R100S, F101Y, Y105W
chain 2: B1 chain 2
B19: unnamed (protein)
chain 1: B1 chain 1 with F101Y, Y105W
chain 2: B1 chain 2

Each binder was assayed against IL36R (assay: Kd (SPR)).
B1 was tested, and the Kd was 3.28 nM.
Binder B2 has a Kd of 7.07 nM.
With B3 the Kd was 4.32 nM.
With B4 the Kd was 1.61 nM.
For B5, the Kd was 1.13 nM.
B6 gave a Kd of 0.758 nM.
Work on B7 yielded a Kd of 0.991 nM.
Work on B8 yielded a Kd of 1.04 nM.
Work on B9 yielded a Kd of 1.54 nM.
B10 showed a Kd of 274 nM.
With B11 the Kd was 4.79 nM.
B12 showed a Kd of 0.759 nM.
In the case of B13, the Kd is reported as 1.87 nM.
With B14 the Kd was 12.3 nM.
For B15, the Kd was 0.689 nM.
B16 showed a Kd of 3.16 nM.
B17 was tested, and the Kd was 0.888 nM.
With B18 the Kd was 1.4 nM.
Work on B19 yielded a Kd of 0.888 nM.
